Test results reported in IntAct's records for PubMed 12655004.

B1: U3 small nucleolar ribonucleoprotein protein IMP4 (Homo sapiens), Q96G21 (parent)
chain: MLRREARLRREYLYRKAREEAQRSAQERKERLRRALEENRLIPTELRREALALQGSLEFDDAGGEGVTSHVDDEYRWAGVEDPKVMITTSRDPSSRLKMFAKELKLVFPGAQRMNRGRHEVGALVRACKANGVTDLLVVHEHRGTPVGLIVSHLPFGPTAYFTLCNVVMRHDIPDLGTMSEAKPHLITHGFSSRLGKRVSDILRYLFPVPKDDSHRVITFANQDDYISFRHHVYKKTDHRNVELTEVGPRFELKLYMIRLGTLEQEATADVEWRWHPYTNTARKRVFLSTE
partner: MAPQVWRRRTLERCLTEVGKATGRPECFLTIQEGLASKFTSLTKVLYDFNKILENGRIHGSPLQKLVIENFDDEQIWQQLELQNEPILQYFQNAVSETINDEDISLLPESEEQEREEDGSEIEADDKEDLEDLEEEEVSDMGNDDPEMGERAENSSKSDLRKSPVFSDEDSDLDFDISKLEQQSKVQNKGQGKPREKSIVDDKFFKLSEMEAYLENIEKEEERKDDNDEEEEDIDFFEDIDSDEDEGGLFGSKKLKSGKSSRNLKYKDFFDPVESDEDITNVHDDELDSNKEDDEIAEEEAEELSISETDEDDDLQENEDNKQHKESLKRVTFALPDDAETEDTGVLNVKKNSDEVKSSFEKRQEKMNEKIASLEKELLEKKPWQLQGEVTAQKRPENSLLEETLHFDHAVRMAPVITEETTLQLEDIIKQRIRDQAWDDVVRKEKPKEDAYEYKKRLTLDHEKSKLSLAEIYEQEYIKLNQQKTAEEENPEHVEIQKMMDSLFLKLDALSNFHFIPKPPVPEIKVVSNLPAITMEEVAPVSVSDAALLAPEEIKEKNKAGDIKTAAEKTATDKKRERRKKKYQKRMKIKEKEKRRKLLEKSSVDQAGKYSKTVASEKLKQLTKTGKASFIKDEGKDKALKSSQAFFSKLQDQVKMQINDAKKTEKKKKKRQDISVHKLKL

Variants of: B1
Details: with mpp10_human MPHOSPH10, O00566

Row | effect of a mutation on the interaction | Variant
1 | disrupting interaction strength | MLRREARLRREYLYRKAREEAQRSAQERKERLRRALEENRLIPTELRREALALQGSLEFDDAGGEGVTSHVDDEYRWAGVEDPKVMITTSRDPSSRLKMFAKELKLVFPGAQRMNRGRHEVGALVRACKANGVTDLLVVHEHRGTPVGLIVSHLPFGPTAYFTLCNVVMRHDIPDLGTMSEAKPHLITHGFSSRLGKRVSDILRYLFPVPKDDSHRVITFANQDDYISFRHHVYKKTDHRNVELTAVGPAFELKLYMIRLGTLEQEATADVEWRWHPYTNTARKRVFLSTE [E246A;R250A]
2 | disrupting interaction strength | MLRREARLRREYLYRKAREEAQRSAQERKERLRRALEENRLIPTELRREALALQGSLEFDDAGGEGVTSHVDDEYRWAGVEDPKVMITTSRDPSSRLKMFAKELKLVFPGAQRMNRGRHEVGALVRACKANGVTDLLVVHEHRGTPVGLIVSHLPFGPAAYATLCNVVMRHDIPDLGTMSEAKPHLITHGFSSRLGKRVSDILRYLFPVPKDDSHRVITFANQDDYISFRHHVYKKTDHRNVELTEVGPRFELKLYMIRLGTLEQEATADVEWRWHPYTNTARKRVFLSTE [T159A;F162A]
